Our source for the Kd values is patent publication US20260092124A1.

Test [1] has as its target human CD40 (human) (UniProt P25942). Nature of the test: cell binding (GpL luciferase, HT1080-CD40); mean, n=5.
Test [2] shares this target. In words: cell binding (GpL luciferase, HT1080-CD40); single representative experiment.

Sequence of human CD40 (human) (P25942 21-277): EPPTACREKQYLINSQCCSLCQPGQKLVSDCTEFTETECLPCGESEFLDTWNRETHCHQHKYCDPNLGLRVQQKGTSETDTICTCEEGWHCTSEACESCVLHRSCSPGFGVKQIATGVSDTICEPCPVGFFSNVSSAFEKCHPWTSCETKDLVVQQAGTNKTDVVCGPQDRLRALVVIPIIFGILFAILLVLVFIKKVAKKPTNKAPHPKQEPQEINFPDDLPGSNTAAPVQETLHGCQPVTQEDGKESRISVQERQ

As a reminder, the Kd is the free concentration of one partner at which half of the binding sites on the other are occupied at equilibrium, for simple one-to-one binding. High values mean lower affinity, low ones higher affinity. For G28.5 IgG1 variant, the Kd in the test with human CD40 (human) [1] is 0.086 µg/mL; with human CD40 (human) [2], 0.08 µg/mL.
The matching figures for CP-870,893 IgG1 variant: 0.334 µg/mL and 0.35 µg/mL.
In the case of APX005M IgG1 variant, the Kd in the test with human CD40 (human) [1] was determined as 0.274 µg/mL; with human CD40 (human) [2], 0.26 µg/mL.
